Patent US20220251222A1 (Johns Hopkins, published 2022)

Key:
[1] = molecular target: T1, IL-8RB expressed on lentivirally transduced HEK 293T cells (UniProt P25025 1-360, limits assumed); experiment: competition with 400 nM His-tagged IL-8 on IL-6Rα-/IL-8R+ HEK 293T cells, flow cytometry
T1 construct: whole, on cells; also called IL-8R^+ cells; IL-6Rα^-/IL-8R^+ HEK 293T cells
T1 sequence (looked up): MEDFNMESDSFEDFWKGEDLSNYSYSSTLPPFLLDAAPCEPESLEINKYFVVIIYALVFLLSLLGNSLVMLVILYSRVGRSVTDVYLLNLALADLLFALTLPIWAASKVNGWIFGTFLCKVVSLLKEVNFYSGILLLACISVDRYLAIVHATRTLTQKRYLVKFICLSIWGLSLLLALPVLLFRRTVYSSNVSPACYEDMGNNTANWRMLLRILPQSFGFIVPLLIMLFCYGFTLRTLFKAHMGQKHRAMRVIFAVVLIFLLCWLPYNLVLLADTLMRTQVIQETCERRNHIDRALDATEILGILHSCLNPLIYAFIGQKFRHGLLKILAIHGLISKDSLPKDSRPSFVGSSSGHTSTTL
Description: IL-6Rα⁺/IL-8R⁻ and IL-6Rα⁻/IL-8R⁺ HEK 293T cells were cultured as previously described, and were trypsinized, resuspended in PBSA, and aliquoted into 96-well plates (2×10⁵ cells per well). IL-6Rα⁺/IL-8R⁻ 293T cells were incubated with titrations of various monoclonal or bispecific antibodies in the presence of saturating concentration of biotinylated IL-6 (100 nM) (Acro Biosystem, cat #: IL6-H8218-25UG) for 2 hr at 4° C. with rotation. Cells were then washed and incubated with 1:200 dilution of Alexa Fluor 647-conjugated streptavidin (Fisher Scientific, cat #: S21374) in PBSA for 15 min at 4° C. After a final wash, cells were resuspended in PBSA and analyzed on a CytoFLEX flow cytometer (Beckman Coulter). Curves were fitted to a first-order logistic model and IC₅₀ values were calculated using GraphPad Prism data analysis software. Mean fluorescence intensity (MFI) of unstimulated cells was subtracted. Similarly, IL-6Rα⁻/IL-8R⁺ 293T cells were incubated with titrations of various monoclonal or bispecific antibodies with saturating concentration of His-tagged IL-8 (400 nM) (Sino Biological, cat #: 10098-H08Y-100) for 2 hr at 4° C. with rotation. […] After a final wash, cells were resuspended in PBSA and analyzed on a CytoFLEX flow cytometer (Beckman Coulter). Curves were fitted to a first-order logistic model and IC₅₀ values were calculated using GraphPad Prism data analysis software. […]

[2] = molecular target: T1, IL-8RB expressed on lentivirally …; experiment: flow cytometry titration on IL-6Rα+/IL-8R+ HEK 293T cells; IL-6Rα+/IL-8R+ 293T cells (FIG. 7C)
Description: (§1) HEK 293T cells were cultured in Dulbecco's modified Eagle's medium (DMEM, Mediatech) supplemented with 10% (Hyclone), 2 mM L-glutamine and 100 U/mL penicillin-streptomycin (Gibco). For surface binding assays, IL-6Rα⁺/IL-8R⁻, IL-6Rα⁻/IL-8R⁺, IL-6Rα⁺/IL-8R⁺, and […] HEK 293T cells were trypsinized for detachment, resuspended in PBSA, and then aliquoted into 96-well plates (1×10⁵ cells per well). Cells were incubated with titrations of various monoclonal or bispecific antibodies for 2 hr at 4° C. with rotation. Cells were then washed and incubated with a 1:50 dilution of fluorescein isothiocyanate (FITC)-conjugated anti-human IgG1 antibody (Sigma-Aldrich, Clone 8c/6-39) in PBSA for 15 min at 4° C. After a final wash, cells were resuspended in PBSA and analyzed on a CytoFLEX flow cytometer (Beckman Coulter). Binding isotherms were fitted to a first-order logistic model and KD values were calculated using GraphPad Prism data analysis software. Mean fluorescence intensity (MFI) of unstimulated cells was subtracted. […]
(§2) To determine whether engineered bispecific binding agents BS1 and BS2 specifically engage target antigens in a physiologically relevant context, antibody binding to IL-6Rα⁺/IL-8R⁻, IL-6Rα⁻/IL-8R⁺, IL-6Rα⁺/IL-8R⁺, and IL-6Rα⁻/IL-8R⁻ lentivirally transduced HEK 293T cells was measured via flow cytometry. […]

[3] = molecular target: T2, IL-6Rα expressed on lentivirally transduced HEK 293T cells (UniProt P08887 20-468, limits assumed); experiment: flow cytometry binding titration on IL-6R+/IL-8R- HEK 293T cells, detected with FITC anti-human IgG1
T2 construct: whole, on cells; also called IL-6Rα^+ cells; IL-6Rα^+/IL-8R^- HEK 293T cells
T2 sequence (looked up): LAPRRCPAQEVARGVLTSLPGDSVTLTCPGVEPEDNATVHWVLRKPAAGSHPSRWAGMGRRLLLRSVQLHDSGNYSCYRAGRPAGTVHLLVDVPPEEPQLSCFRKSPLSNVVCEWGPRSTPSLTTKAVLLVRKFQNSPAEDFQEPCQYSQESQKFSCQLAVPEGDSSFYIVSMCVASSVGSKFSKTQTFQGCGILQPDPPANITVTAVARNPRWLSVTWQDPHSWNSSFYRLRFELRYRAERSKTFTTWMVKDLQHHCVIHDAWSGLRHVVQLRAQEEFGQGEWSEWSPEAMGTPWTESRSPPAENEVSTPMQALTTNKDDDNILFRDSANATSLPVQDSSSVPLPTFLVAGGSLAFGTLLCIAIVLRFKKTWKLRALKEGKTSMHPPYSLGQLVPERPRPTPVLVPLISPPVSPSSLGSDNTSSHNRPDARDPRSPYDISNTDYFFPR
Description: as §1, §2

[4] = molecular target: T1, IL-8RB expressed on lentivirally …; experiment: flow cytometry binding titration on IL-6R-/IL-8R+ HEK 293T cells, detected with FITC anti-human IgG1
Description: as §1, §2

[5] = molecular target: T3, human IL-6Rα extracellular domain (ECD), residues 89-303 of the mature protein, with C-terminal biotin … (human, UniProt P08887 108-322, biotinylated with BirA ligase on the biotin acceptor peptide); experiment: equilibrium bio-layer interferometry titration, biotinylated human IL-6Rα ECD immobilized on streptavidin tips
T3 construct: range 89-303; The range 89-303 counts on the mature protein, not on the precursor; Any linkers between the ECD, BAP and His tag are not described; also called IL-6Rα ECD; recombinant IL-6Rα
T3 sequence: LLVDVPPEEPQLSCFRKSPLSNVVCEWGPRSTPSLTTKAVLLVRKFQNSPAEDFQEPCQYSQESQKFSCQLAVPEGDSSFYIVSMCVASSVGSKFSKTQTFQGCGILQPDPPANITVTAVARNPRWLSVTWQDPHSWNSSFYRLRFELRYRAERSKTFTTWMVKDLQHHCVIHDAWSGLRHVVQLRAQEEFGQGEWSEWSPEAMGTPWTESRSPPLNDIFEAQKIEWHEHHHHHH
Description: Biotinylated human IL-6Rα ECD was immobilized to streptavidin-coated tips for analysis on an Octet® Red96 BLI instrument (ForteBio). Less than 5 signal units (nm) of receptor was immobilized to minimize mass transfer effects. Tips were exposed to serial dilutions of the anti-IL-6R antibody tocilizumab, the anti-IL-8R antibody 10H2, BS1, or BS2 in a 96-well plate for 300 s and dissociation was measured for 600 s. Surface regeneration for all interactions was conducted using 15 s exposure to 0.1 M glycine pH 3.0. Experiments were carried out in PBSA (phosphate-buffered saline [PBS] pH 7.3 plus 0.1% bovine serum albumin [BSA, Thermo]) at 25° C. Data was visualized and processed using the Octet® Data Analysis software version 7.1 (ForteBio). Equilibrium titration curve fitting and equilibrium dissociation constant (KD) value determination was implemented in GraphPad Prism software using a first-order logistic model. Experiments were reproduced two times with similar results.
To confirm functionality of our bispecific agents, antibodies were titrated against recombinant IL-6Rα via BLI. […] Moreover, both tocilizumab-containing engineered bispecific binding agents also bound IL-6Rα (FIG. 5).

B1: 10H2, recombinant monoclonal hIgG1 (anti-IL-8RB) (antibody, V domains shown)
VH: EVQLVETGGRLVQPKGSLKLSCAVSGITFKTNAMNWVRQAPGKGLEWVARIRTKSYNYATYYADSVKDRFTISRDDSQSILYLQMNNLKTEDTAMYHCVREGRWGQGTLVTVSA
VL: QAVVTQESALTTSPGETVTLTCRSSTGAVTTSNYANWVQEKPDHLFTGLIGGTNNRPPGVPARFSGSLIGDKAALTITGAQIEDEAIYFCALWYSNHLVFGGGTKLTVL
notes: also called anti-IL-8RB antibody
IC50 [1]: 22 nM | Kd [2]: 4.1 nM | binding result [3]: no binding (tested: 1e-6 M) | EC50 (read off the curve) [4]: ~4 nM | binding result [5]: no binding (tested: about 5e-7 M)
